This note sets out measurements from IntAct's records for PubMed 29039417.

B1: BBSome complex member BBS5 (Homo sapiens), Q8N3I7 (parent)
chain: MSVLDALWEDRDVRFDLSAQQMKTRPGEVLIDCLDSIEDTKGNNGDRGRLLVTNLRILWHSLALSRVNVSVGYNCILNITTRTANSKLRGQTEALYILTKCNSTRFEFIFTNLVPGSPRLFTSVMAVHRAYETSKMYRDFKLRSALIQNKQLRLLPQEHVYDKINGVWNLSSDQGNLGTFFITNVRIVWHANMNDSFNVSIPYLQIRSIKIRDSKFGLALVIESSQQSGGYVLGFKIDPVEKLQESVKEINSLHKVYSASPIFGVDYEMEEKPQPLEALTVEQIQDDVEIDSDGHTDAFVAYFADGNKQQDREPVFSEELGLAIEKLKDGFTLQGLWEVMS
partner: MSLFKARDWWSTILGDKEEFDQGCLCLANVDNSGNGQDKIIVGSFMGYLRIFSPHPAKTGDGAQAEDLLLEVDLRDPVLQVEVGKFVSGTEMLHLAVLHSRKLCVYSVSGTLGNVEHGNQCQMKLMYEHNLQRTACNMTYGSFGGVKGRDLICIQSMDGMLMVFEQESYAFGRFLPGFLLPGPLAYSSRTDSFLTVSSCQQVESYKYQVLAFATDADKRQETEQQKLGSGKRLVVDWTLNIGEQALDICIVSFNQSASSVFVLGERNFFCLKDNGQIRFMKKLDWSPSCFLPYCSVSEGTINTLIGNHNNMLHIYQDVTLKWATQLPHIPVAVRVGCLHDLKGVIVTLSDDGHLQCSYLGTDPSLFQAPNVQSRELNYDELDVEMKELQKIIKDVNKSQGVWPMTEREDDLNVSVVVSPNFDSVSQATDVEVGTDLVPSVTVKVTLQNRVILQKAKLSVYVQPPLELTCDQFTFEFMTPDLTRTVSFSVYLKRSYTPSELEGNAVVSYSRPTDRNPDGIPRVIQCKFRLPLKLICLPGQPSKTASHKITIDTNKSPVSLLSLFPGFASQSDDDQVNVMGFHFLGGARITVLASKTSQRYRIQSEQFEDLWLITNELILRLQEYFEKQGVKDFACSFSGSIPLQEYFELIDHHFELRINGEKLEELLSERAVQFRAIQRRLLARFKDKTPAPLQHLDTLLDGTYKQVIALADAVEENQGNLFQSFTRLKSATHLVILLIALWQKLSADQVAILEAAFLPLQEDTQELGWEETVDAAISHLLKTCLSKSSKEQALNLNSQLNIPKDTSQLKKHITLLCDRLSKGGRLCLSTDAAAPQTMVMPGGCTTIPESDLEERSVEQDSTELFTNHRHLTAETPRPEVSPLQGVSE

The variants in the assay derive from B1. The settings on record: with pthb1_human BBS9, Q3SYG4.
With A298E, the “effect of a mutation on the interaction” value is given as “with no effect”. Consider A298K, for which the “effect of a mutation on the interaction” value was “with no effect”. Take S258A: the “effect of a mutation on the interaction” value is reported as “with no effect”. Take S258E: the “effect of a mutation on the interaction” value is “with no effect”.

S258K: the “effect of a mutation on the interaction” value is “with no effect”. With S260K the entry was “with no effect”. In the case of S260A, the “effect of a mutation on the interaction” value is reported as “with no effect”.

On to S260E, for which the “effect of a mutation on the interaction” value is “with no effect”. With F263A the entry was “with no effect”. For the variant F263E, the “effect of a mutation on the interaction” value is reported as “with no effect”. With F263K the entry was “with no effect”. With D305A, the “effect of a mutation on the interaction” value was “with no effect”. With D305E the entry was “with no effect”; with D305K, “with no effect”; with K272E, “with no effect”.

K272A: the “effect of a mutation on the interaction” value is given as “with no effect”. As to Y267A, the “effect of a mutation on the interaction” value is given as “with no effect”.

On to Y267E, for which the “effect of a mutation on the interaction” value is “with no effect”.

Turning to Y267K, the “effect of a mutation on the interaction” value was “with no effect”. As for G264E, the “effect of a mutation on the interaction” value is “with no effect”.

In the case of G264A, the “effect of a mutation on the interaction” value was “with no effect”. Under G264K stands “with no effect”; under V315K, “with no effect”; under V315E, “with no effect”.

Regarding V315A, the “effect of a mutation on the interaction” value is listed as “with no effect”.

In the case of A301E, the “effect of a mutation on the interaction” value is recorded as “with no effect”. A301K: the “effect of a mutation on the interaction” value is listed as “with no effect”. With R312K the entry was “with no effect”. R312A: the “effect of a mutation on the interaction” value is recorded as “with no effect”.

As for R312E, the “effect of a mutation on the interaction” value is given as “with no effect”. Regarding P314E, the “effect of a mutation on the interaction” value is “with no effect”.

Take P314K: the “effect of a mutation on the interaction” value is listed as “with no effect”. With P314A the entry was “with no effect”. Under F299E stands “with no effect”. Under F299A stands “with no effect”; under F299K, “with no effect”; under A323E, “disrupting interaction strength”. A323K: the “effect of a mutation on the interaction” value was “with no effect”. As to D291K, the “effect of a mutation on the interaction” value is “with no effect”.

D291E: the “effect of a mutation on the interaction” value was “with no effect”. Under D291A stands “with no effect”; under Y257K, “disrupting interaction strength”. With Y257E the entry was “with no effect”. M269K: the “effect of a mutation on the interaction” value is given as “with no effect”.

In the case of M269A, the “effect of a mutation on the interaction” value is on record as “with no effect”. Under M269E stands “with no effect”; under E318K, “with no effect”. Under E318A stands “with no effect”. For the variant D286K, the “effect of a mutation on the interaction” value is on record as “with no effect”.

With D286E, the “effect of a mutation on the interaction” value is reported as “with no effect”.

Consider D286A, for which the “effect of a mutation on the interaction” value is “with no effect”. For the variant S317A, the “effect of a mutation on the interaction” value was “with no effect”. Consider S317E, for which the “effect of a mutation on the interaction” value is given as “with no effect”.

On to S317K, for which the “effect of a mutation on the interaction” value is “with no effect”.

Consider P261A, for which the “effect of a mutation on the interaction” value is on record as “with no effect”.

With P261K, the “effect of a mutation on the interaction” value is “with no effect”. With P261E the entry was “with no effect”; with E268A, “with no effect”.

For the variant E268K, the “effect of a mutation on the interaction” value is “with no effect”. Regarding L276K, the “effect of a mutation on the interaction” value is recorded as “with no effect”.

Turning to L276E, the “effect of a mutation on the interaction” value was “with no effect”.

On to L276A, for which the “effect of a mutation on the interaction” value was “with no effect”. With D293K the entry was “with no effect”. Turning to D293E, the “effect of a mutation on the interaction” value is on record as “with no effect”.

On to D293A, for which the “effect of a mutation on the interaction” value was “with no effect”. Under F316E stands “with no effect”; under F316K, “with no effect”. With F316A the entry was “with no effect”; with A259E, “with no effect”. With A259K the entry was “with no effect”; with S292K, “with no effect”. S292A: the “effect of a mutation on the interaction” value is on record as “with no effect”. For the variant S292E, the “effect of a mutation on the interaction” value is “with no effect”. As for E289K, the “effect of a mutation on the interaction” value was “with no effect”. Under E289A stands “with no effect”; under G306E, “with no effect”; under G306A, “with no effect”.

On to G306K, for which the “effect of a mutation on the interaction” value is “with no effect”. On to Q285A, for which the “effect of a mutation on the interaction” value was “disrupting interaction strength”. As for Q285K, the “effect of a mutation on the interaction” value is on record as “with no effect”. In the case of Q285E, the “effect of a mutation on the interaction” value is “with no effect”.

On to E319A, for which the “effect of a mutation on the interaction” value is listed as “with no effect”. Under E319K stands “with no effect”; under A278K, “with no effect”; under A278E, “with no effect”. Regarding I324A, the “effect of a mutation on the interaction” value was “with no effect”.

For L322E, the “effect of a mutation on the interaction” value is reported as “with no effect”.

Consider L322A, for which the “effect of a mutation on the interaction” value was “with no effect”. As to L322K, the “effect of a mutation on the interaction” value was “disrupting interaction strength”. As to F303K, the “effect of a mutation on the interaction” value is given as “with no effect”. Under F303E stands “with no effect”; under F303A, “disrupting interaction strength”.
